Data published in publication PMC12001206, “Characterization of multiple binding sites on microtubule associated protein 2c recognized by dimeric and monomeric 14‐3‐3ζ” (The Febs Journal, 2025).
Several values for one entry are separate records, joined by “and”; a condition that tells them apart may be missing. Equal values may be shown once. Read-outs that look alike come from different tables or passages of the source. Square brackets hold non-standard residues; d marks the D form. Ends that are not written are not given here. pS = N[C@@H](COP(=O)(O)O)C(=O)O

B7: dimeric pseudo wild‐type 14‐3‐3ζ (14‐3‐3ζ C25A/C189A) (natural protein)
chain: SVDMDKNELVQKAKLAEQAERYDDMAAAMKSVTEQGAELSNEERNLLSVAYKNVVGARRSSWRVVSSIEQKTEGAEKKQQMAREYREKIETELRDICNDVLSLLEKFLIPNASQAESKVFYLKMKGDYYRYLAEVAAGDDKKGIVDQSQQAYQEAFEISKKEMQPTHPIRLGLALNFSVFYYEILNSPEKAASLAKTAFDEAIAELDTLSEESYKDSTLIMQLLRDNLTLWTSDTQGDEAEAGEGGEN
notes: additional residues at the N-terminus; 14-3-3ζ, residues 1-245, UniProt P63104; C25A and C189A count on P63104; The results speak of '230 residues examined' in the crystals, the methods of residues 1-245 plus SVD; also called d14‐3‐3ζ; dimeric 14‐3‐3ζ

Columns and labels:
[1] = molecular target: MAP2c phosphorylated selectively by PKA at Ser435 (rat) (UniProt P15146); test: NMR titration; 31P 1D NMR; 60 μM SP-MAP2c or MP-MAP2c with 12.5-300 μM d14-3-3ζ or 12.5-200 μM m14-3-3ζ; chemical shift changes fitted; apparent KD
[2] = molecular target: MAP2c phosphorylated selectively by PKA at Ser435 (rat) (UniProt P15146); test: ITC; 14-3-3ζ (d: 2.9-3 mM; m: 1.5 mM) injected into the cell with 90 μM MAP2c or 220 μM fragment 300-467; 27 °C; 50 mM MOPS, 100 mM NaCl, 4 mM β-mercaptoethanol; one set of sites; apparent KD
[3] = molecular target: unphosphorylated MAP2c (microtubule associated protein 2c) (rat) (UniProt P15146); test: cross-linking; DSBU (200 μM) cross-linking, SDS/PAGE and LC-MS/MS; 20 μM UP-/MP-MAP2c with 80 μM d14-3-3ζ or m14-3-3ζ, or 80 μM d14-3-3ζ with 100 or 400 μM UP-(333-362); PBS, 1 mM TCEP, 37 °C
[4] = molecular target: T1, MAP2c fully phosphorylated by PKA (rat, UniProt P15146-3 1-467, almost complete phosphorylation at Ser184, Thr220, and Ser435); test: as above
T1 construct: microtubule-associated protein 2c (MAP2c), rat, 467 residues, UniProt A6KFC7; 15N,13C-labelled for the HNCO experiments; also called MP‐MAP2c; source: MAP2c expressed and purified as described earlier, incubated overnight with PKA at 27 °C, purified on HiTrap SP
T1 sequence (looked up): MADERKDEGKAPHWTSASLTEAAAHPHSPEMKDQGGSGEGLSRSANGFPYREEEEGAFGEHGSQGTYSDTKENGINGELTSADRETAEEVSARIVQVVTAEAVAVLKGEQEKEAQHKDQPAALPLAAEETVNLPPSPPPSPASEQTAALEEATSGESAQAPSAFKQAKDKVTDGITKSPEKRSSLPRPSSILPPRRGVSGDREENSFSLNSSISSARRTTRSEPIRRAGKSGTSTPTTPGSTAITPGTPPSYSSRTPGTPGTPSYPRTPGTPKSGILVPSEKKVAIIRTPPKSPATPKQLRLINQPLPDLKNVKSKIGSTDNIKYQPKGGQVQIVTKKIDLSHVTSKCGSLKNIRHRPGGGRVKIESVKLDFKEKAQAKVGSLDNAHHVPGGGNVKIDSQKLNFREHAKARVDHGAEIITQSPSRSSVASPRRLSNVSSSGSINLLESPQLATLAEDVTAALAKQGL

[5] = molecular target: T1, MAP2c fully phosphorylated by PKA; test: ITC; 14-3-3ζ (d: 2.9-3 mM; m: 1.5 mM) injected into the cell with 90 μM MAP2c or 220 μM fragment 300-467; 27 °C; 50 mM MOPS, 100 mM NaCl, 4 mM β-mercaptoethanol; one set of sites; apparent KD
[6] = molecular target: B7; test: NMR titration; 3D HNCO peak broadening; 350 μM 15N,13C-UP-(300-399) with 350 μM d14-3-3ζ; 27 °C; NMR buffer; conditions: both partners purified
[7] = molecular target: B7; test: ITC; 14-3-3ζ (d: 2.9-3 mM; m: 1.5 mM) injected into the cell with 90 μM MAP2c or 220 μM fragment 300-467; 27 °C; 50 mM MOPS, 100 mM NaCl, 4 mM β-mercaptoethanol; one set of sites; apparent KD; conditions: both partners purified
[8] = molecular target: T2, monomeric 14‐3‐3ζ‐L12E/M78K/C25A/C189A, P63104; test: ITC; free m14-3-3ζ titrated into ITC buffer; heat of dissociation; dimer to monomers; conditions: remark: other sources report otherwise
T2 chain: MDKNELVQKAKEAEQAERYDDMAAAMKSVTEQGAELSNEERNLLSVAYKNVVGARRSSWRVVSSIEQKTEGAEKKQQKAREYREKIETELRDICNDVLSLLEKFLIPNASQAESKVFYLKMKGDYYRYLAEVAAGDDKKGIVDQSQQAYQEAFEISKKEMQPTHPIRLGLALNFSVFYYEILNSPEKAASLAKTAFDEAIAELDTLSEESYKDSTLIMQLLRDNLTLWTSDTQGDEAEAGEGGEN

[9] = molecular target: T2, monomeric 14‐3‐3ζ‐L12E/M78K/C25A/C189A, …; test: native gel or EMSA; native PAGE; 100 μM d14-3-3ζ or m14-3-3ζ with 0-400 μM MP-MAP2c, 15 min at room temperature; 10% gel, 25 mM Tris, 192 mM glycine, 4 °C; conditions: remark: other sources report otherwise
[10] = molecular target: B7; test: ITC; 3 mM d14-3-3ζ injected into 160 μM SP-(432-439) or 150 μM UP-(333-362); 27 °C; 50 mM MOPS, 100 mM NaCl, 4 mM β-mercaptoethanol; n set to one in the fit; conditions: both partners purified
[11] = molecular target: T3, MAP2c phosphorylated selectively by PKA at Ser435 (rat, UniProt P15146-3 1-467, phosphoserine at 435); test: NMR titration; 31P 1D NMR; 60 μM SP-MAP2c or MP-MAP2c with 12.5-300 μM d14-3-3ζ or 12.5-200 μM m14-3-3ζ; chemical shift changes fitted; apparent KD; conditions: both partners purified
T3 construct: microtubule-associated protein 2c (MAP2c), rat, 467 residues, UniProt A6KFC7; 15N,13C-labelled for the HNCO experiments; also called SP‐MAP2c; source: MAP2c expressed and purified as described earlier, incubated with PKA for 1 h at 27 °C, purified on HiTrap SP
T3 sequence (looked up): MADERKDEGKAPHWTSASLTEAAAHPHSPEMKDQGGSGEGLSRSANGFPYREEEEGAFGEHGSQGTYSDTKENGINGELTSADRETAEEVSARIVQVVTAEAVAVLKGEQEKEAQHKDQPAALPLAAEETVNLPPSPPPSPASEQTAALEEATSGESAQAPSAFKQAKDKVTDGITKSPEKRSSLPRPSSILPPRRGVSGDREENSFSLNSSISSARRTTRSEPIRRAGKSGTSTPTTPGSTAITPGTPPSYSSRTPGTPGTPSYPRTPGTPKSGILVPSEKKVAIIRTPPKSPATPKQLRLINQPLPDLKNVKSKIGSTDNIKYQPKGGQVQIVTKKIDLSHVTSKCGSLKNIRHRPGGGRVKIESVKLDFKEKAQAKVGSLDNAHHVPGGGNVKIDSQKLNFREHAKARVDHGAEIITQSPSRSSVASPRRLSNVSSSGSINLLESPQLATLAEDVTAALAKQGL

[12] = molecular target: T4, unphosphorylated MAP2c (microtubule associated protein 2c) (rat, UniProt P15146-3 1-467); test: cross-linking; DSBU (200 μM) cross-linking, SDS/PAGE and LC-MS/MS; 20 μM UP-/MP-MAP2c with 80 μM d14-3-3ζ or m14-3-3ζ, or 80 μM d14-3-3ζ with 100 or 400 μM UP-(333-362); PBS, 1 mM TCEP, 37 °C; conditions: both partners purified
T4 construct: microtubule-associated protein 2c (MAP2c), rat, 467 residues, UniProt A6KFC7; 15N,13C-labelled (M9 medium) for the HNCO experiments; also called UP‐MAP2c
T4 sequence (looked up): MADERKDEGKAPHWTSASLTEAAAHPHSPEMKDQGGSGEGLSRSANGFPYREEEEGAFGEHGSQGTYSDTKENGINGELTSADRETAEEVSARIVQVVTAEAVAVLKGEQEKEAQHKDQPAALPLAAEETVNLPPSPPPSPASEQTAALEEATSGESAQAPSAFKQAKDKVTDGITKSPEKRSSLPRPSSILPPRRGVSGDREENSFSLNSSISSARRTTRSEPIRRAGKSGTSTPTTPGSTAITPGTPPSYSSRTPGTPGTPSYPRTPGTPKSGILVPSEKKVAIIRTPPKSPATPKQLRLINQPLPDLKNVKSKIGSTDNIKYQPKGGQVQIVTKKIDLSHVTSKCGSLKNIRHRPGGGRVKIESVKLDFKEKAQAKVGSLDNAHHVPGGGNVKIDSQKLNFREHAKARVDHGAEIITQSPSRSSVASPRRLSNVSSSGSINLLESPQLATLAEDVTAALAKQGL

[13] = molecular target: the molecule itself; test: as above
[14] = molecular target: T4, unphosphorylated MAP2c (microtubule …); test: ITC; 14-3-3ζ (d: 2.9-3 mM; m: 1.5 mM) injected into the cell with 90 μM MAP2c or 220 μM fragment 300-467; 27 °C; 50 mM MOPS, 100 mM NaCl, 4 mM β-mercaptoethanol; one set of sites; apparent KD; conditions: both partners purified
[15] = molecular target: T3, MAP2c phosphorylated selectively by PKA …; test: as above; conditions: both partners purified

In the case of “monomeric 14‐3‐3ζ‐L12E/M78K/C25A/C189A (from UniProt P63104 1-245) (natural protein)”, the Kd [1] is reported as 133 µM, the Kd [2] is reported as 102 µM and the dH [2] is reported as 2.49 kcal/mol. The stoichiometry N [2] was 1.51, the stoichiometry N [3] was 2 and the stoichiometry N [4] was 2. It also gave a Kd [5] of 17 µM, a dH [5] of 0.765 kcal/mol and a stoichiometry N [5] of 1.31.

B1: MAP2c microtubule binding domain fragment, residues 300–399 (domain or fragment, rat, UniProt P15146-3 300-399, looked up)
chain: LRLINQPLPDLKNVKSKIGSTDNIKYQPKGGQVQIVTKKIDLSHVTSKCGSLKNIRHRPGGGRVKIESVKLDFKEKAQAKVGSLDNAHHVPGGGNVKIDS
notes: MAP2c, rat, UniProt A6KFC7, residues 300-399, containing the MTBD; also called UP‐(300–399); MTBD; source: cloned into pET28a (NcoI, BamHI); expressed in M9 medium (15N,13C) and purified by the same protocol as MAP2c
B1: binds [6].

B2: unphosphorylated MAP2c fragment 300–467 (MTBD and CTD) (domain or fragment, rat, UniProt P15146-3 300-467, looked up)
chain: LRLINQPLPDLKNVKSKIGSTDNIKYQPKGGQVQIVTKKIDLSHVTSKCGSLKNIRHRPGGGRVKIESVKLDFKEKAQAKVGSLDNAHHVPGGGNVKIDSQKLNFREHAKARVDHGAEIITQSPSRSSVASPRRLSNVSSSGSINLLESPQLATLAEDVTAALAKQGL
notes: MAP2c, rat, UniProt A6KFC7, residues 300-467, covering MTBD and CTD; also called UP‐(300–467); source: cloned into pET28a (NcoI, BamHI); expressed and purified by the same protocol as MAP2c
B2 was tested, and the Kd [7] was 56 ± 8 µM.

B3: MAP2c fragment 300–467 phosphorylated by PKA on Ser435 (domain or fragment, rat, UniProt P15146-3 300-467, looked up)
chain: LRLINQPLPDLKNVKSKIGSTDNIKYQPKGGQVQIVTKKIDLSHVTSKCGSLKNIRHRPGGGRVKIESVKLDFKEKAQAKVGSLDNAHHVPGGGNVKIDSQKLNFREHAKARVDHGAEIITQSPSRSSVASPRRLSNVSSSGSINLLESPQLATLAEDVTAALAKQGL
modifications: phosphoserine at 435
notes: MAP2c, rat, UniProt A6KFC7, residues 300-467, covering MTBD and CTD; also called SP‐(300–467); source: cloned into pET28a; expressed and purified by the same protocol as MAP2c; incubated overnight with PKA at 27 °C
For B3, the Kd [7] was 24 ± 6 µM.

B4: monomeric 14‐3‐3ζ‐L12E/M78K/C25A/C189A, P63104 1-245 (natural protein)
chain: MDKNELVQKAKEAEQAERYDDMAAAMKSVTEQGAELSNEERNLLSVAYKNVVGARRSSWRVVSSIEQKTEGAEKKQQKAREYREKIETELRDICNDVLSLLEKFLIPNASQAESKVFYLKMKGDYYRYLAEVAAGDDKKGIVDQSQQAYQEAFEISKKEMQPTHPIRLGLALNFSVFYYEILNSPEKAASLAKTAFDEAIAELDTLSEESYKDSTLIMQLLRDNLTLWTSDTQGDEAEAGEGGEN
B4 showed a Kd [8] of 600 µM and a percent present as a dimer at 100 μM [9] of 20%.

B5: peptide corresponding to residues 333–362 of MAP2c (peptide)
peptide: QIVTKKIDLSHVTSKCGSLKNIRHRPGGGR
notes: source: synthetic peptide, ordered from Clonestar
Molecule B5 has a Kd [10] of 1800 ± 100 µM.

B6: phosphopeptide corresponding to residues 432–439 of MAP2c (peptide)
peptide: RRL[pS]NVSS
notes: as for B5
With B6 the Kd [10] was 3200 ± 400 µM.

For B7, the Kd [11] was 7.3 µM and < 15 µM, the “stoichiometry N” value [11] was 2.73 ± 0.2 and the “stoichiometry N” value [12] was 2. For the same molecule, the “stoichiometry N” value ([4]; both partners purified) was 2, the binding result [13] was “binds” and the Kd [14] was 58 ± 6 µM. For the same molecule, the dH [14] was 2.72 ± 0.12 kcal/mol, the “stoichiometry N” value [14] was 1.93 ± 0.03 and the Kd [15] was 74 ± 21 µM. For the same molecule, the dH [15] was 2.08 ± 0.239 kcal/mol, the “stoichiometry N” value [15] was 2.68 ± 0.12 and the Kd ([5]; both partners purified) was 21 ± 3 µM. For the same molecule, the dH ([5]; both partners purified) was 1.34 ± 0.0478 kcal/mol and the “stoichiometry N” value ([5]; both partners purified) was 1.99 ± 0.04.
